These results are taken from paper PMC7809202, “Identification of fidelity-governing factors in human recombinases DMC1 and RAD51 from cryo-EM structures” (Nature Communications, 2021).

For one data set, the target named is T1, human RAD51 (Homo sapiens, UniProt Q06609, V273P/D274G).
T1 construct: untagged as described, human cDNA in pET11, E. coli BLR pRARE host; helical filament on dsDNA
T1 sequence (Q06609 2-339 V273P/D274G): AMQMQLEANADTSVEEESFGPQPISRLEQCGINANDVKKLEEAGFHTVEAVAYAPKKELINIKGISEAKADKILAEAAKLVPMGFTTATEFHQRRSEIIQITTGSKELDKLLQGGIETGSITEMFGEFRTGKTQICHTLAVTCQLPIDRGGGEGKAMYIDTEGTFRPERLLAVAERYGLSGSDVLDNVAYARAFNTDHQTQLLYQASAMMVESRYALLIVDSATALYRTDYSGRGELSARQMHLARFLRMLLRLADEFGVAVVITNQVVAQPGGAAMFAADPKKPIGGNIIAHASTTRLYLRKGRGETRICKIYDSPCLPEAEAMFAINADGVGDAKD
Put plainly: cryo-EM structure of filament. To be noted: 2 mM AMP-PNP, 5 mM CaCl2, pH 7.5, 37 °C; homologous dsDNA filament; ATP-binding site.

Data set [1] concerns the molecule itself. In words: cryo-EM structure; helical filaments: 4 uM DMC1 (or RAD51) protein with 24 uM nucleotides of ssDNA (presynaptic) or dsDNA (postsynaptic) in 35 mM Tris-HCl pH 7.5, 108 mM KCl, 1 mM DTT, 2 mM AMP-PNP, 5 mM CaCl2, 37 °C, 30 min; helical reconstruction; protomer to protomer within a nucleoprotein filament.
Data set [2] has as its target T2, DMC1 WT (Homo sapiens, UniProt Q14565 1-340).
T2 sequence: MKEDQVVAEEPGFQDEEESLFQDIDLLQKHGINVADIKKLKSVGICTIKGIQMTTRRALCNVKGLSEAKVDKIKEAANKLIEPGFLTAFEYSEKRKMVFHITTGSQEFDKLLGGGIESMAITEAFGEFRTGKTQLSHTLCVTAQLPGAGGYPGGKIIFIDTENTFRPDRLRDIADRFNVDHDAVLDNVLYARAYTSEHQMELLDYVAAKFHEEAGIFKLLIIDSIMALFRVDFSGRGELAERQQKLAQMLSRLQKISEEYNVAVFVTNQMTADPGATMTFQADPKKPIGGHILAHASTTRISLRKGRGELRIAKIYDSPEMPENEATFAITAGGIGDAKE
Put plainly: cryo-EM structure; EMSA: 35 mM Tris-HCl pH 7.5, 1 mM DTT, 10 mM MgCl2, 100 ng/ul BSA, 50 mM KCl, 2 mM ATP, 37 °C 10 min; DNA 3 uM nucleotides or base pairs. To be noted: protein: recombinant, tags: His6, blunt. In general terms: A gel shift assay detects complexes by their altered migration in electrophoresis.

In the next data set the target is T3, DMC1-PvGd (Homo sapiens, UniProt Q14565 1-340, P274V;G275D).
T3 sequence: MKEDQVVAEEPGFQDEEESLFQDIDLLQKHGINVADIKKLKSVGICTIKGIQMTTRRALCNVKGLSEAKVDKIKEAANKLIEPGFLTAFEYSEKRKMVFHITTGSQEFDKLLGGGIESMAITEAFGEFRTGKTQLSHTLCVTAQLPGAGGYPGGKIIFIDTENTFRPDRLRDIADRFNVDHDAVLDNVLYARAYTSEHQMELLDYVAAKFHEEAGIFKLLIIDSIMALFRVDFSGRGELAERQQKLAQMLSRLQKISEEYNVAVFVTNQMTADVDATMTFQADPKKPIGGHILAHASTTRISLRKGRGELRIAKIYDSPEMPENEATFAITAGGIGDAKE
In words: EMSA; 2 mM ATP, 10 mM Mg2+; EMSA: 35 mM Tris-HCl pH 7.5, 1 mM DTT, 10 mM MgCl2, 100 ng/ul BSA, 50 mM KCl, 2 mM ATP, 37 °C 10 min; DNA 3 uM nucleotides or base pairs. To be noted: protein: recombinant, tags: His6.

The next data set addresses T4, DMC1-QmPvGd (Homo sapiens, UniProt Q14565 1-340, Q244M;P274V;G275D).
T4 sequence: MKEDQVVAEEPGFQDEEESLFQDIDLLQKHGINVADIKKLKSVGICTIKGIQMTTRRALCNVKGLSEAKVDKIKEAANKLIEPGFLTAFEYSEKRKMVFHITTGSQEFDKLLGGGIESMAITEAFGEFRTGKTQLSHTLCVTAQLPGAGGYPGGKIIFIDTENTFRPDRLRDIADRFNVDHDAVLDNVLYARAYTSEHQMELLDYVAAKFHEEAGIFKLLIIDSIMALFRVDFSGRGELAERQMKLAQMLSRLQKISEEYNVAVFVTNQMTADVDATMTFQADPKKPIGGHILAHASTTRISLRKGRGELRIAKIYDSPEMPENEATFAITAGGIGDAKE
The data set is described as above. The following applies: protein: recombinant, tags: His6.

The target of data set [3] is T2, DMC1 WT. Put plainly: cryo-EM structure; AMP-PNP; EMSA: 35 mM Tris-HCl pH 7.5, 1 mM DTT, 10 mM MgCl2, 100 ng/ul BSA, 50 mM KCl, 2 mM ATP, 37 °C 10 min; DNA 3 uM nucleotides or base pairs. The following applies: protein: recombinant; tags: His6; single strand.
The target in the next data set is T5, DMC1-Q244M (Qm) (Homo sapiens, UniProt Q14565 1-340, Q244M).
T5 sequence: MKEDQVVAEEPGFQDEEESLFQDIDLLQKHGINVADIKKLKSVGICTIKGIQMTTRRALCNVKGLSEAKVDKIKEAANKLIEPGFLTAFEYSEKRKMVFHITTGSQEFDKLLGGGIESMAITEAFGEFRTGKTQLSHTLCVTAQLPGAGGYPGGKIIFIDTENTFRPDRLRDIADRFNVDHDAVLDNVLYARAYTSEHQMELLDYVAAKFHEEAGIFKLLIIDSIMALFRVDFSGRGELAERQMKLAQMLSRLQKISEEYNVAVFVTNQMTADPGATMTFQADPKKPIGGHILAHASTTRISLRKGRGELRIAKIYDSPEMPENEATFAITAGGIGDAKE
Put plainly: cryo-EM structure; DNA too flexible to be observed; EMSA: 35 mM Tris-HCl pH 7.5, 1 mM DTT, 10 mM MgCl2, 100 ng/ul BSA, 50 mM KCl, 2 mM ATP, 37 °C 10 min; DNA 3 uM nucleotides or base pairs. To be noted: protein: recombinant; tags: His6; blunt.

[4] abbreviates: label: 5'-32P (EMSA), single strand.
Where [5] appears, read: label: 5'-32P on Oligo 1, blunt.

For the molecule `Nc1ncnc2c1ncn2[C@@H]1O[C@H](COP(=O)(O)OP(=O)(O)NP(=O)(O)O)[C@@H](O)[C@H]1O` [AMP-PNP], the “cryo-EM structure of filament” value at human RAD51 is reported as “solved the structure of the dsDNA filaments of the double mutant RAD51-VpDg”.

B1: human RAD51-V273P/D274G (natural protein)
chain: MAMQMQLEANADTSVEEESFGPQPISRLEQCGINANDVKKLEEAGFHTVEAVAYAPKKELINIKGISEAKADKILAEAAKLVPMGFTTATEFHQRRSEIIQITTGSKELDKLLQGGIETGSITEMFGEFRTGKTQICHTLAVTCQLPIDRGGGEGKAMYIDTEGTFRPERLLAVAERYGLSGSDVLDNVAYARAFNTDHQTQLLYQASAMMVESRYALLIVDSATALYRTDYSGRGELSARQMHLARFLRMLLRLADEFGVAVVITNQVVAQPGGAAMFAADPKKPIGGNIIAHASTTRLYLRKGRGETRICKIYDSPCLPEAEAMFAINADGVGDAKD
notes: RAD51, human; site-directed mutant of the RAD51 cDNA in vector pET11; Protomer of a helical filament assembled on dsDNA with AMP-PNP and Ca2+; also called RAD51-VpDg; RAD51-V273P, D274G mutant
As to B1, in data set [1], the binding result is “binds”.

B2: human DMC1 (wild type) (natural protein)
chain: MKEDQVVAEEPGFQDEEESLFQDIDLLQKHGINVADIKKLKSVGICTIKGIQMTTRRALCNVKGLSEAKVDKIKEAANKLIEPGFLTAFEYSEKRKMVFHITTGSQEFDKLLGGGIESMAITEAFGEFRTGKTQLSHTLCVTAQLPGAGGYPGGKIIFIDTENTFRPDRLRDIADRFNVDHDAVLDNVLYARAYTSEHQMELLDYVAAKFHEEAGIFKLLIIDSIMALFRVDFSGRGELAERQQKLAQMLSRLQKISEEYNVAVFVTNQMTADPGATMTFQADPKKPIGGHILAHASTTRISLRKGRGELRIAKIYDSPEMPENEATFAITAGGIGDAKE
notes: DMC1, human; cDNA in vector pRSFDuet; Protomer of a helical filament assembled on ssDNA or dsDNA with AMP-PNP and Ca2+; also called DMC1-WT; WT DMC1; source: E. coli RecA-deficient BLR strain with pRARE, purified (TALON, Source Q, macrohydroxyapatite, Mono Q)
As to B2, the binding result in data set [1] is given as “binds”.

B3: human DMC1-Q244M (natural protein)
chain: MKEDQVVAEEPGFQDEEESLFQDIDLLQKHGINVADIKKLKSVGICTIKGIQMTTRRALCNVKGLSEAKVDKIKEAANKLIEPGFLTAFEYSEKRKMVFHITTGSQEFDKLLGGGIESMAITEAFGEFRTGKTQLSHTLCVTAQLPGAGGYPGGKIIFIDTENTFRPDRLRDIADRFNVDHDAVLDNVLYARAYTSEHQMELLDYVAAKFHEEAGIFKLLIIDSIMALFRVDFSGRGELAERQMKLAQMLSRLQKISEEYNVAVFVTNQMTADPGATMTFQADPKKPIGGHILAHASTTRISLRKGRGELRIAKIYDSPEMPENEATFAITAGGIGDAKE
notes: DMC1, human; site-directed mutant of the DMC1 cDNA in pRSFDuet; Protomer of a helical filament assembled with homologous dsDNA, AMP-PNP and Ca2+; the DNA density was not observable in the map; also called DMC1-Qm; source: E. coli BLR pRARE, purified as described for the WT protein
As to B3, the binding result in data set [1] is “binds”.

B4: Oligo 3/Oligo 5 15 bp mismatched dsDNA (dsDNA)
DNA 1: ACGGGCAACAGCTGA
DNA 2: TCAGCTGTCGCCCGT
For the molecule B4, the binding result in the data set with DMC1 WT [2] (one A-C mismatch) is recorded as “binds”.

B5: Oligo 1 80-mer ssDNA (ssDNA)
DNA: TTATGTTCATTTTTTATATCCTTTACTTTATTTTCTCTGTTTATTCATTTACTTATTTTGTATTATCCTTATCTTATTTA
In the case of B5, the binding signal with DMC1-PvGd (setting [4]) is ~60 % of WT binding (approx. 40% lost); in the data set with DMC1-QmPvGd (setting [4]), ~40 % of WT binding (approx. 60% lost).

B6: Oligo 1 80-mer ssDNA, unlabeled (ssDNA)
DNA: TTATGTTCATTTTTTATATCCTTTACTTTATTTTCTCTGTTTATTCATTTACTTATTTTGTATTATCCTTATCTTATTTA
Turning to B6, the binding result in the data set with DMC1 WT [3] is on record as “binds”.

B7: Oligo 1/Oligo 2 80 bp dsDNA (dsDNA)
DNA 1: TTATGTTCATTTTTTATATCCTTTACTTTATTTTCTCTGTTTATTCATTTACTTATTTTGTATTATCCTTATCTTATTTA
DNA 2: TAAATAAGATAAGGATAATACAAAATAAGTAAATGAATAAACAGAGAAAATAAAGTAAAGGATATAAAAAATGAACATAA
As to B7, the figures for the binding signal with DMC1-PvGd (setting [5]) and with DMC1-QmPvGd (setting [5]) were ~60 % of WT binding (approx. 40% lost) and ~40 % of WT binding (approx. 60% lost), respectively.

B8: Oligo 3/Oligo 4 15 bp homologous dsDNA (dsDNA)
DNA 1: ACGGGCAACAGCTGA
DNA 2: TCAGCTGTTGCCCGT
As to B8, the binding result with DMC1 WT [2] and with DMC1-Q244M (Qm) was “binds” each time.
